# In patent publication US20250084126A1, “PEPTIDE AND COMPOSITION” (OSAKA UNIVERSITY, priority 2021, published 2025):
# No end group written: not given here.
# How the values were obtained:
# hDPSCs [1] = assay: LDH-assay cytotoxicity to hDPSCs; assay type: cell-based, human; settings: for cytotoxicity, overall conclusion: 0.1-100 μg/ml, versus PBS; for cytotoxicity compared to the control (LDH-assay): 2 days, control PBS, p<0.05
# Method: The hDPSCs were seeded in α-MEM medium containing 10% FBS added with the four peptides at concentrations of 0.1, 1, 10, and 100 μg/ml in a 96 well plate at 5,000 cells/well and cultured at 37° C. for 2 days in a 5% CO2 gas phase. For toxicity test, culture supernatant was collected and LDH-assay was performed using LDH Cytotoxicity Detection Kit (Takara Bio Inc., Shiga). A reagent was added to the collected culture supernatant, and the culture supernatant was placed at 37° C. for 30 minutes in the 5% CO2 gas phase. The absorbance at 405 nm was then measured using the microplate reader (ARVO MX). To further evaluate the proliferative capacity, WST-1-assay was performed using Premix WST-1 Cell Proliferation Assay System (Takara Bio Inc.) after the cells had been continuously cultured for 1 day. The culture was added with a WST-1 reagent and allowed to stand for 30 minutes at 37° C. in the 5% CO2 gas phase. After shaking for 1 minute at room temperature, the absorbance at 450 nm was measured using the microplate reader (ARVO MX). A sample in which the PBS was added to the culture was used as a control, and the number of samples was 6 for each condition.
# (§1) The statistical significance test in the above experiment was performed using the One-way ANOVA and Tukey's test for a cytotoxicity test and Kruskal-Wallis-test for a cell proliferation test and a comparison of the amount of formed tertiary dentin in the direct pulp capping experiment, with a critical value of 5%.
# hDPSCs [2] = assay: Proteome analysis (LC-MS/MS) of proteins expressed by hDPSCs; assay type: cell-based, human; settings: 0.1 mM, 7 days
# Method: The No. 28 peptide or the recombinant S100-A8, the protein from which the No. 28 peptide is derived, was applied to the hDPSCs to compare and quantify the proteins expressed by the hDPSCs by the LC-MS/MS. The hDPSCs were seeded in a 100 mm cell culture dish at 3,000,000 cells/plate in the mineralization induction medium containing each of the samples containing the No. 28 peptide or the S100-A8 at a concentration of 0.1 mM, and cultured at 37° C. in the 5% CO2 gas phase for 7 days. Then, plasma membrane and cytoplasmic proteins were extracted using a plasma membrane protein extraction kit (Cosmo Bio Co., Ltd., Tokyo). As a practical procedure, the hDPSCs were cultured for 7 days, collected with a scraper, added with Buffer A included in the kit, and left on ice for 10 minutes. The hDPSCs were then transferred into a microtube with a filter cartridge included in the kit and centrifuged at 14,000 rpm for 30 seconds. After discarding the cartridge and agitating for 10 seconds, the microtube was centrifuged at 3000 rpm for 1 minute and the supernatant was collected. The collected supernatant was then centrifuged at 14,000 rpm for 30 minutes to extract the cytoplasmic proteins separated in a supernatant and the plasma membrane proteins separated in pellet. As a control, the hDPSCs cultured in mineralization induction medium supplemented with the PBS were used.
# Each sample was analyzed by liquid chromatography using UltiMate 3000 Nano LC systems (Thermo Fisher Scientific, USA) and ESI-column (0.075×150 mm) (Thermo Fisher Scientific). A 0.1% formic acid aqueous solution containing acetonitrile was used as a mobile phase at a flow rate of 300 nL/min. The concentration of acetonitrile was 5% for the first 5 min, increased to 40% in 95 min, then increased at a constant rate for 2 min to 90%, and maintained for 5 min. The peptides were analyzed using Q-Exactive (Thermo Fisher Scientific). Identification and quantitative analysis of the proteins were performed by peptide mass fingerprinting using Mascot Distiller v2.5, Mascot Server v2.5 (Matrix Science, USA), and UniProt on obtained MS/MS spectra.
# In addition, to evaluate changes in expression levels of the proteins, the following criteria were used to narrow down the identified plasma membrane-derived and cytoplasm-derived proteins among the samples.
# • Proteins whose measured values were higher in the S100-A8 group than in the control group • Proteins whose measured values in the peptide group are more than twice as high as those in the control group • Proteins whose measured values in both the peptide group and the S100-A8 group are equal to or greater than 1 (a.u.; arbitrary unit)
# • Proteins whose measured values were lower in the S100-A8 group than in the control group • Proteins whose measured values in the control group are more than twice as high as those in the peptide group • Proteins whose measured values in the control group are equal to or greater than 1 (a.u.; arbitrary unit)
# Each of the groups narrowed down by the above criteria was analyzed using Gene Ontology (GO) classification. The GO provides an internationally standardized GO Term, which is intended to describe biological functions. The GO Term is organized in a hierarchical structure, with the upper order representing general functions and the lower order representing more detailed functions. For example, there are three categories at the top: “Molecular function,” “Biological process,” and “Cellular component.”
# The GO Term belonging to “Molecular function” and “Biological process” which represent their respective functions from the above classification were searched for the protein groups obtained in this experiment, and the functions characteristic to each protein group were examined.
# exposed pulp = settings: rat in vivo, reported in Non Patent Literature 1; cited from earlier work
# pulp cells = settings: reported in Non Patent Literature 1; cited from earlier work
# [3] = system: exposed pulp of rat molars; assay: Direct pulp capping experiment using Protein S100 family-derived peptide; assay type: in vivo; settings: 4 weeks; for structure of the tertiary dentin compared to the samples treated with the peptides (HE staining): 1 μg/ml; for number of samples with tertiary dentin formation that completely sealed the exposed pulp region: micro-CT scoring, n=8 per condition, peptides 100 μg/ml, recombinant proteins 1 μg/ml, 20 μl in gelatin sponge; for closure of the surface of the exposed pulp (HE staining): representative samples with complete tertiary dentin formation
# Method: To evaluate the effect of the Protein S100 family-derived peptide on ability of forming of the tertiary dentin, a direct pulp capping experiment was performed on rat molars using a gelatin sponge (Spongel®) soaked with 20 μl of each PBS solution containing the No. 28, No. 47, No. 32, or No. 51 peptide at a concentration of 100 μg/ml using the same way as described in the section 1) of “Materials and Methods” of the section 1 of the section I above. PBS solution containing the S100-A8 (PROSPEC, Israel), the PBS solution containing the S100-A9 (PROSPEC), wherein the S100-A8 and S100-A9 are a recombinant of the protein from which the peptide was derived, at a concentration of 1 μg/ml, and the PBS solution alone were used as controls. After 4 weeks from the capping treatment, the micro-CT imaging and image analysis were performed on the tertiary dentin formed just below the exposed pulp. An evaluation method, in which the amount of formed tertiary dentin observed in histopathological images was scored, in the direct pulp capping experiment conducted by Okamoto et al. in the past, was applied to the micro-CT images in this study, and the evaluation was performed by scoring the formed tertiary dentin [Clinical Oral Investigations 2018, 22(8):2879-2887; Journal of Dentistry 2010, 38(10):828-837]. The evaluation was performed by one person, with a score of Grade 0 in cases where the tertiary dentin was formed in only one-third or less of the exposed pulp region, Grade 1 in cases where the tertiary dentin was formed in one-third to two-thirds of the exposed pulp region, Grade 2 in cases where the tertiary dentin was formed in two-thirds or more of the exposed pulp region, and Grade 3 in cases where the formed tertiary dentin was completely covering the exposed pulp region. In addition, the same micro-CT images were analyzed using the same way as described in the section 2) of “Materials and Methods” of the section 1 of the section I above to evaluate the volume of the formed tertiary dentin. HE staining was also performed using the same way as described in the section 3) of “Materials and Methods” of the section 1 of the section I above, and histopathological evaluation of the formation of the tertiary dentin was performed. The number of samples was 8 for each condition.
# as §1
# [4] = mineralization induction medium, count for No. 28 peptide or S100-A8 jointly
molecule,measurement,setting,value
"KLLETECPQ [No. 28 peptide, Lys-Leu-Leu-Glu-Thr-Glu-Cys-Pro-Gln]","cytotoxicity, overall conclusion",hDPSCs [1],comparable to that of the PBS
same,cytotoxicity compared to the control (LDH-assay),"hDPSCs [1]; all concentrations (0.1, 1, 10, 100 μg/ml)",significantly lower cytotoxicity
"NADKQLSFE [No. 51 peptide, Asn-Ala-Asp-Lys-Gln-Leu-Ser-Phe-Glu]",cytotoxicity compared to the control (LDH-assay),hDPSCs [1]; 10 μg/ml,significantly lower cytotoxicity
same,cytotoxicity compared to the control (LDH-assay),hDPSCs [1]; 100 μg/ml,significantly lower cytotoxicity
same,"cytotoxicity, overall conclusion",hDPSCs [1],comparable to that of the PBS
"NTDGAVNFQ [No. 32 peptide, Asn-Thr-Asp-Gly-Ala-Val-Asn-Phe-Gln]",cytotoxicity compared to the control (LDH-assay),hDPSCs [1]; 1 μg/ml,significantly lower cytotoxicity
same,"cytotoxicity, overall conclusion",hDPSCs [1],comparable to that of the PBS
"S100-A8: recombinant of the protein from which the peptide was derived (PROSPEC); UniProtKB-P05109 (protein, UniProt P05109 1-93, looked up) Protein S100-A8: MLTELEKALNSIIDVYHKYSLIKGNFHAVYRDDLKKLLETECPQYIRKKGADVWFKELDINTDGAVNFQEFLILVIKMGVAAHKKSHEESHKE","expression levels of proteins promoting MAPK signaling pathway (MAP2K1, CDH2, NRAS, MAP1, CRK, PSMB7) versus control",hDPSCs [2]; GO Term analysis,decreased
same,"expression levels of proteins promoting NFκB signaling pathway (FLOT1, 3KCR1, LYRIC, GJA1, S100A-13, NOL3) versus control",hDPSCs [2]; GO Term analysis,more increased
same,cytoplasm-derived proteins whose expression levels were more decreased than in the control,hDPSCs [2]; [4],67 proteins
same,cytoplasm-derived proteins whose expression levels were more increased than in the control,hDPSCs [2]; [4],250 proteins
same,plasma membrane-derived proteins whose expression levels were more decreased than in the control,hDPSCs [2]; [4],97 proteins
same,plasma membrane-derived proteins whose expression levels were more increased than in the control,hDPSCs [2]; [4],158 proteins
same,tertiary dentin induction in the direct pulp capping experiment,exposed pulp,completely covers the surface of the exposed pulp
same,effect on pulp cells in vitro,pulp cells,"activates proliferation, differentiation, and mineralization abilities"
same,structure of the tertiary dentin compared to the samples treated with the peptides (HE staining),[3],sparse structure
same,number of samples with tertiary dentin formation that completely sealed the exposed pulp region,[3],1 samples
same,closure of the surface of the exposed pulp (HE staining),[3],completely closed by the formed tertiary dentin
"S100-A9: recombinant of the protein from which the peptide was derived (PROSPEC); UniProtKB-P06702 (protein, UniProt P06702 1-114, looked up) Protein S100-A9: MTCKMSQLERNIETIINTFHQYSVKLGHPDTLNQGEFKELVRKDLQNFLKKENKNEKVIEHIMEDLDTNADKQLSFEEFIMLMARLTWASHEKMHEGDEGPGHHHKPGLGEGTP",structure of the tertiary dentin compared to the samples treated with the peptides (HE staining),[3],sparse structure
same,number of samples with tertiary dentin formation that completely sealed the exposed pulp region,[3],2 samples
same,closure of the surface of the exposed pulp (HE staining),[3],completely closed by the formed tertiary dentin
